# Measured values as given in US20230212228A1 (ETH Z RICH, published 2023).
# Groups on a side chain read outwards from the residue. No end group written: not given here. Mal‑Cy5 = Cy5-maleimide thiol adduct on the Cys side chain
# B1: Cy5-FnBPA5 (peptide)
# peptide: C([maleimide-Cy5])GGGQVTTESNLVEFDEESTKGIVTGAVSDHTTVEDTK
# modifications: not fully specified
# notes: A payload-GGG- format by amide bond is also mentioned; also called Cy5-labelled FnBPA5; FnBPA5 peptide
# Experiments:
# [1] = molecular target: T1, Fib1, N-terminal 30 kDa fragment of fibronectin (Homo sapiens (Human), UniProt P02751 32-290); assay: fluorescence polarization/anisotropy, Cy5-labelled peptide (48 nM) titrated with Fib1 in PBS pH 7.4
# T1 construct: also called Fib1 construct; 30 kDa N-terminal fragment of fibronectin containing the N-terminal FnI1-5 modules
# [2] = molecular target: T1, Fib1, N-terminal 30 kDa fragment of …; assay: fluorescence polarization, Cy5-labelled peptide titrated with Fib1
# T1 sequence (P02751 32-290 limits assumed): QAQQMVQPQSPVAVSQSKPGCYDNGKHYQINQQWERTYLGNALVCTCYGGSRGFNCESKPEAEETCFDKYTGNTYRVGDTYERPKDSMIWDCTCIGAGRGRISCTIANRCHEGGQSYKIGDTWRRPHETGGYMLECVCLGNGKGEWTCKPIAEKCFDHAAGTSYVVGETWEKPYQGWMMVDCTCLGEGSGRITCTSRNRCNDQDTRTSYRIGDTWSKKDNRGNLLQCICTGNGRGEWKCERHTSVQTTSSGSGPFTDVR
binder,measurement,setting,value
B1,Kd,[1],102 nM
C(Mal‑Cy5)GGGQVTTGSNLVEFTEESLGIVTGAVSDHTTVEDT (also called Cy5-labelled FnBPA5.1) [Cy5-FnBPA5.1],binding result,[2],binds
